The target of assay [1] is human ErbB2, full length, on cells (B300.19/hErbB2 clone #44; MCF7; BT474; SKBR3) (human).
Assay [2] has the same target. The source holds these as a separate data set.
Assay [3] shares this target. The source holds these as a separate data set.
For assay [4], the target named is human ErbB2 ECD-myc/His fusion protein (human). As to the kind of experiment: SPR, high resolution Biacore T100; mAb captured on goat anti-human IgG, hHer-2(ECD)cMyc injected; 1:1 fit.
Assay [5] has as its target human ErbB2, full length, on cells (B300.19/hErbB2 clone #44; MCF7; BT474; SKBR3) (human). The source holds these as a separate data set.
Assay [6] shares this target. This is another data set of the same source.
The target of assay [7] is human ErbB2 ECD-myc/His fusion protein (human). As to the kind of experiment: limited antigen ELISA, 31 ng/ml antigen coated, supernatant 1:25, OD 450 nm. In general terms: In an ELISA, binding on a coated surface is turned into a signal by an enzyme label.
For assay [8] the target is unchanged. As to the kind of experiment: SPR, medium resolution Biacore 2000; mAb captured on goat anti-human IgG, ErbB2(ECD)-cMyc/His injected; 1:1 fit. In general terms: In SPR one partner is held on a chip, and binding of the other changes the refractive index at the surface.
The target of assay [9] is human ErbB2, full length, on cells (B300.19/hErbB2 clone #44; MCF7; BT474; SKBR3) (human). This is another data set of the same source.

Values joined by “and” are separate entries in the source; they are usually repeats but may differ in a detail not shown here. Identical values can stand only once.

In assay [1], hIgG1 control antibody came in with a % inhibition @36 µg/ml, SKBR3 cell proliferation of 2% and an EC50 (ng/ml), inhibition of SKBR3 cell proliferation greater than 36000 ng/mL. For the same molecule, in assay [2], the N1 % Inhibition @40 µg/ml, BT474 cell proliferation is -2%; the N1 EC50 (ng/ml), inhibition of BT474 cell proliferation is greater than 40000 ng/mL; the N2 EC50 (ng/ml), inhibition of BT474 cell proliferation is greater than 40000 ng/mL.
As to chimeric anti-hErbB2 antibody 2C4, in assay [1], the EC50 (ng/ml), inhibition of SKBR3 cell proliferation was greater than 36000 ng/mL. In assay [3], this molecule showed a % Inhibition @10 µg/ml (n1), ErbB2 phosphorylation in BT474 cells at 48 hours of 10%. In addition, the dissociation constant (Kd) (commonly the free concentration of one partner at which half of the binding sites on the other are occupied at equilibrium, for simple one-to-one binding) in assay [4] came to 3.2 nM. In [5], this molecule had an EC50 (ng/ml) n1, inhibition of Heregulin-induced ErbB2 phosphorylation in MCF7 cells of 43.6 ng/mL and an EC50 (ng/ml) n2, inhibition of Heregulin-induced ErbB2 phosphorylation in MCF7 cells of 14.6 ng/mL. In [6], this molecule had a % Inhibition @10 µg/ml, Heregulin-induced MCF7 cell proliferation of 90% and an EC50 (ng/ml), inhibition of Heregulin-induced MCF7 cell proliferation of 404 ng/mL. Further, in assay [2], the N1 % Inhibition @40 µg/ml, BT474 cell proliferation is -9%; the N1 EC50 (ng/ml), inhibition of BT474 cell proliferation is greater than 40000 ng/mL; the N2 EC50 (ng/ml), inhibition of BT474 cell proliferation turned out to be 4750 ng/mL.
Molecule Herceptin® (antibody) yielded a % Inhibition @10 µg/ml (n1), ErbB2 phosphorylation in BT474 cells at 48 hours in [3] of 5%. For the same molecule, in [5], the EC50 (ng/ml) n1, inhibition of Heregulin-induced ErbB2 phosphorylation in MCF7 cells was greater than 10000 ng/mL and the EC50 (ng/ml) n2, inhibition of Heregulin-induced ErbB2 phosphorylation in MCF7 cells is greater than 10000 ng/mL. The same molecule returned an EC50 (ng/ml), inhibition of Heregulin-induced MCF7 cell proliferation in assay [6] greater than 10000 ng/mL.

B1: monoclonal antibody 1.20 (antibody, V domains shown)
VH: QLQLQESGPGLVKPSETLSLTCTVSGGSISSSNYYWGWIRQPPGKGLEWIGTIYYTGSTYYNPSLKSRVTISVDTSKNQFSLKLSSVTAADTAVYYCARHHWVFDYWGQGTLVTVSS
VL: DIQMTQSPSSVSASVGDRVTITCRASQGISSWLAWYQQKPGKAPKLLIYAASSLQSGVPSRFSGSGSGTDFTLTISSLQPEDFATYYCQRTNSFPRTFGQGTKVEIK
Turning to B1, the LA at 31 ng/ml in assay [7] is 2.84 OD and 1.77 OD. Also, in assay [1], the % inhibition @36 µg/ml, SKBR3 cell proliferation stood at 49% and the EC50 (ng/ml), inhibition of SKBR3 cell proliferation was 25.2 ng/mL. Also, the % Inhibition @10 µg/ml (n1), ErbB2 phosphorylation in BT474 cells at 48 hours in [3] worked out at 21%. Moreover, in [8], the dissociation constant (Kd) is 3.6 nM; the koff (in general, a measure of how fast the partners let go of each other) was 0.000344 s⁻¹; the kon – broadly, a measure of how fast the partners come together – is 95000 M⁻¹ s⁻¹. In [5], this molecule had an EC50 (ng/ml) n1, inhibition of Heregulin-induced ErbB2 phosphorylation in MCF7 cells of 15.5 ng/mL and an EC50 (ng/ml) n2, inhibition of Heregulin-induced ErbB2 phosphorylation in MCF7 cells of 17.4 ng/mL. In assay [9], this molecule had a 24 hr pTyr inhibition % (line 1*19) of 97% and a 24 hr pTyr inhibition % (line 1*20) of 96%. In assay [6], this molecule displayed a % Inhibition @10 µg/ml, Heregulin-induced MCF7 cell proliferation of 100% and an EC50 (ng/ml), inhibition of Heregulin-induced MCF7 cell proliferation of 770 ng/mL. Also, in assay [2], the N1 % Inhibition @40 µg/ml, BT474 cell proliferation worked out at 40%; the N1 EC50 (ng/ml), inhibition of BT474 cell proliferation is 85.3 ng/mL; the N2 EC50 (ng/ml), inhibition of BT474 cell proliferation is 12.8 ng/mL.

B2: monoclonal antibody 1.96 (antibody, V domains shown)
VH: EVQLVESGGGLVQPGGSLRLSCAASGFTFSSYWMSWVRQAPGKGLEWVANIKQDGSEKYYVDSVKGRFTISRDNAKNSLYLQMNSLRAEDTAVYYCARWGVFGSGSYYIPFDYWGQGTLVTVSS
VL: DIQMTQSPSSLSASVGDRVTITCRASHSITRYINWYQQKPGKAPNLLIYAASSLQSGVPSRFSGSGSGTDFTLTISSPQPEDFATYYCQQSYSSPPITFGQGTRLEIK
For the molecule B2, in assay [1], the % inhibition @36 µg/ml, SKBR3 cell proliferation amounted to 43% and the EC50 (ng/ml), inhibition of SKBR3 cell proliferation came to 41.7 ng/mL. Also, in [3], the % Inhibition @10 µg/ml (n1), ErbB2 phosphorylation in BT474 cells at 48 hours stood at 37%. For the same molecule, in [4], the Kd stood at 11.6 nM, the koff worked out at 0.000194 s⁻¹ and the on-rate (kon) worked out at 16800 M⁻¹ s⁻¹. For the same molecule, in [8], the Kd is 2.6 nM, the koff came to 0.000273 s⁻¹ and the kon worked out at 103000 M⁻¹ s⁻¹. Besides, in [5], the EC50 (ng/ml) n1, inhibition of Heregulin-induced ErbB2 phosphorylation in MCF7 cells was 28.8 ng/mL and the EC50 (ng/ml) n2, inhibition of Heregulin-induced ErbB2 phosphorylation in MCF7 cells worked out at 34 ng/mL. In addition, in assay [9], the 24 hr pTyr inhibition % (line 1*96) stood at 99%, the 24 hr pTyr inhibition % (line 1*99) came to 99%, the 24 hr pTyr inhibition % (line 1*104) amounted to 73% and the 24 hr pTyr inhibition % (line 1*107) stood at 82%. In assay [9], the 24 hr pTyr inhibition % (line 1*128) was determined as 98%. Further, in [6], the % Inhibition @10 µg/ml, Heregulin-induced MCF7 cell proliferation amounted to 98% and the EC50 (ng/ml), inhibition of Heregulin-induced MCF7 cell proliferation was determined as 2830 ng/mL. In addition, in assay [2], the N1 % Inhibition @40 µg/ml, BT474 cell proliferation came to 35%; the N1 EC50 (ng/ml), inhibition of BT474 cell proliferation came out at 131 ng/mL; the N2 EC50 (ng/ml), inhibition of BT474 cell proliferation amounted to 66.3 ng/mL.

B3: monoclonal antibody 1.18.1 (antibody, V domains shown)
VH: QVQLVESGGGVVQPGRSLRLSCAASGFTFSSYGMHWVRQAPGKGLEWVAVIWYDRSNKYYADSVKGRFTISRDNSKNTLYLQMDSLRAEDTAVYYCAGGRSRGAFDYWGQGTLVTVSS
VL: DIQMTQSPSSLSASVGDRVTITCRASQGIRNYLAWFQQKPGKAPKSLIYAASSLQSGVPSTFSGSGSGTHFTLTISSLQPEDFASYFCQQYEIYPLTFGGGTKVEIK
In assay [7], B3 displayed an LA at 31 ng/ml of 3.03 OD. In assay [1], this molecule displayed a % inhibition @36 µg/ml, SKBR3 cell proliferation of 46% and an EC50 (ng/ml), inhibition of SKBR3 cell proliferation of 26.3 ng/mL. This molecule also gave a % Inhibition @10 µg/ml (n1), ErbB2 phosphorylation in BT474 cells at 48 hours in assay [3] of 24%. In [8], this molecule returned a Kd of 3 nM, a koff of 0.000302 s⁻¹ and a kon of 100000 M⁻¹ s⁻¹. Also, in assay [5], the EC50 (ng/ml) n1, inhibition of Heregulin-induced ErbB2 phosphorylation in MCF7 cells came to 4.2 ng/mL and the EC50 (ng/ml) n2, inhibition of Heregulin-induced ErbB2 phosphorylation in MCF7 cells stood at 10.8 ng/mL. Moreover, the 24 hr pTyr inhibition % (line 1*18) in [9] turned out to be 96%. For the same molecule, in assay [6], the % Inhibition @10 µg/ml, Heregulin-induced MCF7 cell proliferation is 94% and the EC50 (ng/ml), inhibition of Heregulin-induced MCF7 cell proliferation turned out to be 415 ng/mL. Also, in assay [2], the N1 % Inhibition @40 µg/ml, BT474 cell proliferation stood at 34%; the N1 EC50 (ng/ml), inhibition of BT474 cell proliferation is 38.1 ng/mL; the N2 EC50 (ng/ml), inhibition of BT474 cell proliferation was 28.2 ng/mL.

B4: monoclonal antibody 1.43 (antibody, V domains shown)
VH: QVQLVESGGGLVKPGGSLRLSCAASGFTFSDYYMNWIRQAPGKGLEWVSYISSSGSIIYYADSVKGRFTISRDNAKNSLYLQMNSLRAEDTAVYYCAREGRIAARGMDVWGQGTTVTVSS
VL: DIQMTQSPSSLSASVGDRVSITCRPSQSFSRYINWYQQKPGKAPKLLIHAASSLVGGVPSRFSGSGSGTDFTLTISSLQPEDFATYYCQQTYSNPPITFGQGTRLEMK
As to B4, the LA at 31 ng/ml in assay [7] is 3.2 OD and 3.57 OD. In addition, in assay [5], the EC50 (ng/ml) n1, inhibition of Heregulin-induced ErbB2 phosphorylation in MCF7 cells was greater than 10000 ng/mL and the EC50 (ng/ml) n2, inhibition of Heregulin-induced ErbB2 phosphorylation in MCF7 cells was greater than 10000 ng/mL. In [9], the 24 hr pTyr inhibition % (line 1*41) was found to be 86% and the 24 hr pTyr inhibition % (line 1*43) was 82%. In addition, in assay [6], the % Inhibition @10 µg/ml, Heregulin-induced MCF7 cell proliferation was 53% and the EC50 (ng/ml), inhibition of Heregulin-induced MCF7 cell proliferation was determined as 10000 ng/mL.

(Values after patent publication US20100158926A1.)
